In article PMC9569322, “Determination of the boundary lipids of sticholysins using tryptophan quenching” (Scientific Reports, 2022):

Molecular target: the molecule itself
Assay: cross-linking

Protein	binding result
Sticholysin II (StnII), wild type (natural protein, Stichodactyla helianthus, UniProt P07845 1-175, looked up, Sticholysin II (StnII), actinoporin of the sea anemone Stichodactyla helianthus; also called StnII WT; StnII-WT; source: E. coli RB791, purified to homogeneity) ALAGTIIAGASLTFQVLDKVLEELGKVSRKIAVGIDNESGGTWTALNAYFRSGTTDVILPEFVPNTKALLYSGRKDTGPVATGAVAAFAYYMSSGNTLGVMFSVPFDYNWYSNWWDVKIYSGKRRADQGMYEDLYYGNPYRGDNGWHEKNLGYGLRMKGIMTSAGEAKMQIKISR	binds
StnII-I6C/K67C^ox (oxidized double-Cys mutant of sticholysin II) (natural protein, Stichodactyla helianthus, UniProt P07845 1-175, looked up, disulfide bridge between C6 and C67 (oxidized form), Sticholysin II (StnII) of Stichodactyla helianthus with I6C and K67C, made by site-directed mutagenesis; the disulfide prevents the deployment of the N-terminal alpha-helix; Used oxidized; also called StnII CC; source: E. coli RB791, purified to homogeneity) ALAGTCIAGASLTFQVLDKVLEELGKVSRKIAVGIDNESGGTWTALNAYFRSGTTDVILPEFVPNTCALLYSGRKDTGPVATGAVAAFAYYMSSGNTLGVMFSVPFDYNWYSNWWDVKIYSGKRRADQGMYEDLYYGNPYRGDNGWHEKNLGYGLRMKGIMTSAGEAKMQIKISR	binds
Sticholysin I (StnI), wild type (natural protein, Stichodactyla helianthus, UniProt P81662 1-176, looked up, Sticholysin I (StnI), actinoporin of the sea anemone Stichodactyla helianthus; also called StnI WT; source: E. coli RB791, purified to homogeneity) SELAGTIIDGASLTFEVLDKVLGELGKVSRKIAVGIDNESGGTWTALNAYFRSGTTDVILPEVVPNTKALLYSGRKSSGPVATGAVAAFAYYMSNGNTLGVMFSVPFDYNWYSNWWDVKIYPGKRRADQGMYEDMYYGNPYRGDNGWYQKNLGYGLRMKGIMTSAGEAKMQIKISR	binds
StnI-I7C/K68C^ox (oxidized double-Cys mutant of sticholysin I) (natural protein, Stichodactyla helianthus, UniProt P81662 1-176, looked up, disulfide bridge between C7 and C68 (oxidized form), Sticholysin I (StnI) of Stichodactyla helianthus with I7C and K68C, made by site-directed mutagenesis; the disulfide holds the N-terminal alpha-helix on the beta-sandwich; Used oxidized; also called StnI CC; source: E. coli RB791, purified to homogeneity) SELAGTCIDGASLTFEVLDKVLGELGKVSRKIAVGIDNESGGTWTALNAYFRSGTTDVILPEVVPNTCALLYSGRKSSGPVATGAVAAFAYYMSNGNTLGVMFSVPFDYNWYSNWWDVKIYPGKRRADQGMYEDMYYGNPYRGDNGWYQKNLGYGLRMKGIMTSAGEAKMQIKISR	binds
